According to patent publication US20180371086A1:

Molecular target: human CD3, on primary human T cells (human) (UniProt P07766)
Experiment: cell-based or functional assay

Chain of human CD3, on primary human T cells (human) (P07766 23-207 limits assumed): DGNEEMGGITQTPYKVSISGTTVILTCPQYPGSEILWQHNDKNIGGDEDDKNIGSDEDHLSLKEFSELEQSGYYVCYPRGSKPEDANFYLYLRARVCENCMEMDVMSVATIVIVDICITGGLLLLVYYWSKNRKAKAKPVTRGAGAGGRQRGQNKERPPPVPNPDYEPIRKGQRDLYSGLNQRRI

PGT-121.60 (antibody)
CD25 EC50; CD4 T cells; donor D1597; 7552-infected CEM cells: > 100 µg/mL
CD25 EC50; CD4 T cells; donor D1597; THRO-infected CEM cells: > 100 µg/mL
CD25 EC50; CD4 T cells; donor D1597; uninfected CEM cells: > 100 µg/mL
CD25 EC50; CD4 T cells; donor D2256; 7552-infected CEM cells: > 100 µg/mL
CD25 EC50; CD4 T cells; donor D2256; THRO-infected CEM cells: > 100 µg/mL
CD25 EC50; CD4 T cells; donor D2256; uninfected CEM cells: > 100 µg/mL
CD25 EC50; CD4 T cells; donor D4246; 7552-infected CEM cells: > 100 µg/mL
CD25 EC50; CD4 T cells; donor D4246; THRO-infected CEM cells: > 100 µg/mL
CD25 EC50; CD4 T cells; donor D4246; uninfected CEM cells: > 100 µg/mL
CD25 EC50; CD4 T cells; donor D4279; 7552-infected CEM cells: > 100 µg/mL
CD25 EC50; CD4 T cells; donor D4279; THRO-infected CEM cells: > 100 µg/mL
CD25 EC50; CD4 T cells; donor D4279; uninfected CEM cells: > 100 µg/mL
CD25 EC50; CD8 T cells; donor D1597; 7552-infected CEM cells: > 100 µg/mL
CD25 EC50; CD8 T cells; donor D1597; THRO-infected CEM cells: > 100 µg/mL
CD25 EC50; CD8 T cells; donor D1597; uninfected CEM cells: > 100 µg/mL
CD25 EC50; CD8 T cells; donor D2256; 7552-infected CEM cells: > 100 µg/mL
CD25 EC50; CD8 T cells; donor D2256; THRO-infected CEM cells: > 100 µg/mL
CD25 EC50; CD8 T cells; donor D2256; uninfected CEM cells: > 100 µg/mL
CD25 EC50; CD8 T cells; donor D4246; 7552-infected CEM cells: > 100 µg/mL
CD25 EC50; CD8 T cells; donor D4246; THRO-infected CEM cells: > 100 µg/mL
CD25 EC50; CD8 T cells; donor D4246; uninfected CEM cells: > 100 µg/mL
CD25 EC50; CD8 T cells; donor D4279; 7552-infected CEM cells: > 100 µg/mL
CD25 EC50; CD8 T cells; donor D4279; THRO-infected CEM cells: > 100 µg/mL
CD25 EC50; CD8 T cells; donor D4279; uninfected CEM cells: > 100 µg/mL
CD25 Δ Emax; CD4 T cells; donor D1597; 7552-infected CEM cells: 0%
CD25 Δ Emax; CD4 T cells; donor D1597; THRO-infected CEM cells: -2%
CD25 Δ Emax; CD4 T cells; donor D1597; uninfected CEM cells: 3%
CD25 Δ Emax; CD4 T cells; donor D2256; 7552-infected CEM cells: 2%
CD25 Δ Emax; CD4 T cells; donor D2256; THRO-infected CEM cells: -1%
CD25 Δ Emax; CD4 T cells; donor D2256; uninfected CEM cells: -1%
CD25 Δ Emax; CD4 T cells; donor D4246; 7552-infected CEM cells: -2%
CD25 Δ Emax; CD4 T cells; donor D4246; THRO-infected CEM cells: -2%
CD25 Δ Emax; CD4 T cells; donor D4246; uninfected CEM cells: 0%
CD25 Δ Emax; CD4 T cells; donor D4279; 7552-infected CEM cells: -1%
CD25 Δ Emax; CD4 T cells; donor D4279; THRO-infected CEM cells: -2%
CD25 Δ Emax; CD4 T cells; donor D4279; uninfected CEM cells: 0%
CD25 Δ Emax; CD8 T cells; donor D1597; 7552-infected CEM cells: -1%
CD25 Δ Emax; CD8 T cells; donor D1597; THRO-infected CEM cells: 0%
CD25 Δ Emax; CD8 T cells; donor D1597; uninfected CEM cells: 0%
CD25 Δ Emax; CD8 T cells; donor D2256; 7552-infected CEM cells: 0%
CD25 Δ Emax; CD8 T cells; donor D2256; THRO-infected CEM cells: -1%
CD25 Δ Emax; CD8 T cells; donor D2256; uninfected CEM cells: 0%
CD25 Δ Emax; CD8 T cells; donor D4246; 7552-infected CEM cells: 1%
CD25 Δ Emax; CD8 T cells; donor D4246; THRO-infected CEM cells: 0%
CD25 Δ Emax; CD8 T cells; donor D4246; uninfected CEM cells: 0%
CD25 Δ Emax; CD8 T cells; donor D4279; 7552-infected CEM cells: 0%
CD25 Δ Emax; CD8 T cells; donor D4279; THRO-infected CEM cells: 1%
CD25 Δ Emax; CD8 T cells; donor D4279; uninfected CEM cells: 0%
